Data reported in paper PMC5584168.

B1: full-length She1 (She1-FL), HALO-tagged (natural protein)
chain: MNDKLQEEHNEKDTTSQINGFTPPHMSIDFHSNNNSNIIETIGVSKRLGNSVLSELDSRASSKFEFLKDQSEQQYNGDKNNEPKSGSYNINEFFQAKHDSQFGQMESLDTHYTLLHTPKRKSQHAIPQDRSDSMKRSRPSRSIPYTTPVVNDITRRIRRLKLRNSLVNGNDIVARARSMQANSNINSIKNTPLSKPKPFMHKPNFLMPTTNSLNKINSAHRNTSSSSTASSIPRSKVHRSISIRDLHAKTKPVERTPVAQGTNSQLKNSVSVFDRLYKQTTFSRSTSMNNLSSGTSAKSKEHTNVKTRLVKSKTSGSLSSNLKQSTATGTKSDRPIWR
modifications: HaloTag TMR ligand (MT-binding and cross-linking assays) or HaloTag Alexa Fluor 488 ligand (ultracentrifugation) on the HALO tag
B2: full-length She1 (She1-FL), HALO-tagged, P38200 1-338 (natural protein)
chain: B1 chain
modifications: here or on the partner: HaloTag TMR ligand (MT-binding and cross-linking assays) or HaloTag Alexa Fluor 488 ligand (ultracentrifugation) on the HALO tag; HaloTag TMR ligand (MT-binding and cross-linking assays) or HaloTag Alexa Fluor 488 ligand (ultracentrifugation) on the HALO tag
B3: She1-C, C-terminal 194–338 aa of She1, HALO-tagged (domain or fragment)
chain: SKPKPFMHKPNFLMPTTNSLNKINSAHRNTSSSSTASSIPRSKVHRSISIRDLHAKTKPVERTPVAQGTNSQLKNSVSVFDRLYKQTTFSRSTSMNNLSSGTSAKSKEHTNVKTRLVKSKTSGSLSSNLKQSTATGTKSDRPIWR
modifications: HaloTag TMR ligand on the HALO tag where labelled

Columns and labels:
[1] = molecular target: Taxol-stabilized microtubules polymerised from bovine tubulin (bovine) (UniProt Q6B856); assay: wide-field fluorescence microscopy of labelled protein on microtubules; 1 µM TMR-labeled She1 construct preincubated with 60 nM Taxol-stabilized HiLyte 488–labeled MTs, room temperature, 20 min, MAP-binding buffer with 150 mM KCl and 20 µM Taxol; MTs held in a flow chamber by antitubulin antibody; bound TMR fluorescence on the MT measured
[2] = molecular target: T1, full-length She1 (She1-FL), HALO-tagged (S. cerevisiae), P38200; assay: negative-stain EM; purified She1-FL at 4 µM on carbon-coated grids, 0.75% uranyl formate; details: remark: other sources report otherwise
T1 chain: B1 chain

[3] = molecular target: Taxol-stabilized microtubules polymerised from bovine tubulin (bovine) (UniProt Q6B856); assay: co-sedimentation; low-speed microfuge pelleting (15,871 g, 10 min, room temperature); 5 µM She1-C–TMR with varying concentrations of Taxol-stabilized MTs, MAP buffer with 50 mM KCl; quadratic fit, apparent dissociation constant; stoichiometry from the saturation point

| mean TMR fluorescence on MTs [1] | stoichiometry N [2] | stoichiometry N (She1-C–TMR per tubulin) [3] | Binder |
| --- | --- | --- | --- |
| 22000 a.u. | – | – | B1 |
| – | 6 | – | B2 |
| 21000 a.u. | – | 1 | B3 |
